Data taken from article PMC10130975.

Target: human glycerol kinase (His-GK) (human) (UniProt P32189)
Experiment: native gel or EMSA; native-PAGE without the denaturants of SDS-PAGE; purified His-GK ran at ~100 kDa, against ~55 kDa by 10% SDS-PAGE

- stoichiometry N: 2
Substance: human glycerol kinase (His-GK) (from UniProt P32189 1-559) (enzyme)
